Measured values: paper PMC4386032

Molecular target: F-actin (source not stated for this experiment: rabbit muscle or yeast) (not stated (rabbit muscle or yeast actin purified)) (UniProt P68135)

Sequence of Vps1 (yeast dynamin), wild type, recombinant His tag fusion (P21576 whole entry, the tested form may be a part): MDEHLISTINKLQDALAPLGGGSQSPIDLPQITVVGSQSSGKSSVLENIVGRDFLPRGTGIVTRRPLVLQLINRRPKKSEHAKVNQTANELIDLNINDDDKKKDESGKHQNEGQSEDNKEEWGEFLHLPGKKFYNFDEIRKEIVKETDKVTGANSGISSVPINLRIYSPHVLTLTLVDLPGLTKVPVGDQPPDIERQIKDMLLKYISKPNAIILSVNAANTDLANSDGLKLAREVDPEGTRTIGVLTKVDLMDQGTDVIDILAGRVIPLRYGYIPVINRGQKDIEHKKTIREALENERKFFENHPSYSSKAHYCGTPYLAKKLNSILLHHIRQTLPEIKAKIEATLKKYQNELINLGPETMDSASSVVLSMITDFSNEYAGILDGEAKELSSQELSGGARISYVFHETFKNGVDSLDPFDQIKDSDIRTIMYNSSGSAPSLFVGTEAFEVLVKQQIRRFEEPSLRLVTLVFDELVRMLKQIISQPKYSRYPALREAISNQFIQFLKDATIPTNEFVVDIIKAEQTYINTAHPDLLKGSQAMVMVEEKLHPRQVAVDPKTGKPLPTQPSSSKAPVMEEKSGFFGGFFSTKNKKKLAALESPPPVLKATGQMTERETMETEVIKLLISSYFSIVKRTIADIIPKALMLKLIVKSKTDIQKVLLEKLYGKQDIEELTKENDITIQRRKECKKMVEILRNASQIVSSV

EM: proportion of Vps1 structures that are double rings after incubation with actin [%]	EM: proportion of actin in bundles of three or more filaments in the presence of Vps1 [%]	EM: proportion of actin in bundles of two or more filaments in the presence of Vps1 (23% without) [%]	EM: proportion of actin filaments in bundles of three or more in the presence of Vps1 RR-EE [%]	Substance
55	58	> 80		Vps1 (yeast dynamin), wild type, recombinant His tag fusion (from UniProt P21576 1-704) (natural protein)
			8	Vps1 RR457,458EE, recombinant His tag fusion (from UniProt P21576 1-704) (natural protein)
